In patent US20060233785A1, “Immunointeractive molecules and uses thereof” (priority 2001, published 2006):
Changes are numbered by the printed parent chain.

B1: rHev b 6: recombinant Hev b 6 (prohevein) expressed in E. coli from pPROEX-HTa with 6-His tag (protein)
chain: EQCGRQAGGKLCPNNLCCSQWGWCGSTDEYCSPDHNCQSNCKDSGEGVGGGSASNVLATYHLYNSQDHGWDLNAASAYCSTWDANKPYSWRSKYGWTAFCGPVGAHGQSSCGKCLSVTNTGTGAKTTVRIVDQCSNGGLDLDVNVFRQLDTDGKGYERGHITVNYQFVDCGDSFNPLFSVMKSSVIN
modifications: left off: small tags and cut ends
notes: recombinant Hev b 6 (prohevein) expressed in E. coli from pPROEX-HTa with 6-His tag
B2: mutant rHev b 6: rHev b 6 with cysteine to alanine substitution at amino acid 3 of the mature protein (protein)
chain: B1 chain with C3A
modifications: left off: small tags and cut ends
notes: rHev b 6 with cysteine to alanine substitution at amino acid 3 of the mature protein
B3: sulphonated rHev b 6: purified rHev b 6 sulphonated in sulphonation buffer to improve solubility (protein)
chain: B1 chain
modifications: left off: small tags and cut ends

Key:
IgE binding to rHev b 5 = assay: Non-specific inhibition assay: IgE binding to rHev b 5; set-up: species or system human; conditions: serum of latex-allergic, Hev b 5 positive subject (data not shown)
Protocol: To confirm the lack of IgE reactivity of mutant rHev b 6, inhibition ELISA were performed. In these assays, IgE binding to rHev b 6 was inhibited by preincubation of sera from latex allergic, Hev b 6 reactive subjects with either rHev b 6 or mutant rHev b 6 over a range of concentrations. To determine the level of non-specific inhibition inherent in such an assay, an initial non-specific inhibition assay was performed. The serum of a latex-allergic, Hev b 5 positive subject was incubated with rHev b 6 and mutant rHev b 6 and then the ability of IgE from this serum to bind rHev b 5 in an ELISA was measured. When this assay was undertaken, binding of IgE to rHev b5 was inhibited at a maximum of 20% by rHev b 6 and mutant rHev b 6 (data not shown).

[1] = test system: rHev b 6-specific serum IgE; assay: Immunoblotting detecting rHev b 6-specific serum IgE (Example 3); format: binding, human; conditions: sera from patients 1, 4 and 5; prohevein band around 20 kDa
Protocol: FIG. 4 is an image of immunoblotting detecting rHev b 6-specific serum IgE. rHev b 6 was subjected to electrophoresis under reducing conditions on a 16% SDS PAGE minigel and transferred to a nitrocellulose membrane. After blocking with skim milk powder, the membrane was incubated with serum from latex allergic and non-allergic subjects (1:5 dilution). Antibody binding was detected by incubation with rabbit anti-human IgE, swine anti-rabbit immunoglobulins-HRP and 4-chloro-1-naphthol as substrate. M: molecular mass markers; C: Coomassie-stained gel; lane 1: 1A5.4.3 monoclonal antibody; lane 2: P1 serum; lane 3: P4 serum; lane 4: P5 serum; lane 5: non-latex-allergic serum; lane 6: no serum.
Hybridoma supernatants and patient sera were tested for reactivity with LAL, NAL, glove extract, rHev b 6 and hevein by 16% SDS-PAGE and immunoblotting as described previously (Sutherland et al., 2002, supra).

[2] = format: physicochemical
Source text: Recombinant Hev b 6 (rHev b 6): The cDNA encoding Hev b 6 was cloned from latex RNA (Beezhold, unpublished). The deduced amino acid sequence of this clone is identical to that of the Hev b 6 clone pDHPROH 6 in Rozynek P et al., 1998, Clinical and Experimental Allergy 28:1418-1426 and differed at amino acid 126 (Thr versus Ala) from the deduced amino acid sequence of the Hev b 6 clone pDHPROH 1-2 (Genbank entry AJ003196.1). It differs at amino acids 109 (Pro versus Ser) and 161 (Leu versus Ile) from the deduced amino acid sequence of the Hev b 6 clone HEV1 (Genbank entry M36986.1), isolated by Broekaert W, Lee H, Kush A, Chua N-H, Raikhel N. Wound-induced accumulation of mRNA containing a hevein sequence in laticifers of rubber tree (Hevea brasiliensis). Proc Natl Acad Sci USA 1990; 87:7633-7637. The Hev b 6 cDNA was subcloned into the pPROEX-Hta vector (Invitrogen, CA, USA) by the polymerase chain reaction (PCR) following our standardised methods (Sutherland et al., 2002, supra). Primers HEVB6F (5′-[…]-3′) (SEQ ID NO:22) and HEVB6R (5′-[…]-3′) (SEQ ID NO:23) were used for the PCR. The plasmid construct was transformed into E. coli strain BL21-CodonPlus® (DE3)-RIL competent cells (Stratagene, CA, USA) by the heat shock procedure (Sambruk et al., 1989, supra). […]

[3] = test system: IgE from latex allergic subjects; assay: Western blotting of rHev b 6 forms with IgE of patient sera (Example 8); format: binding, human
Protocol: FIG. […] Gels were either stained with Coomassie Brilliant Blue (1) or transferred to nitrocellulose. Strips with transferred protein were incubated with the Hev b 6-specific mAb 1A5.4 and binding detected (2). Strips with transferred protein were also incubated with sera from two latex allergic, Hev b 6 sensitized subjects (3 and 4) and one non-latex-allergic, atopic subject (5). The presence or absence of IgE binding was then detected. […] Plates were coated with rHev b 6 and sulphonated rHev b 6 and the presence or absence of IgE-binding detected. As a positive control the Hev b 6-specific mAb 1A5 was used. NB indicates no binding of IgE was detected.
Four μg of rHev b 6 or sulphonated rHev b 6 were separated on 16% sodium dodecyl sulphate (SDS) polyacrylamide gels with 4% stacking gel. Electrophoresis was performed at 125V for 2 h on a Novex Xcell II Mini-Cell system (Novex, CA, USA). Proteins were visualized with Coomassie Brilliant Blue R-250 (Sigma). The separated proteins were electrophoretically transferred to nitro-cellulose membranes (BA 0.45μ, Schleicher and Schuell, Dassel, Germany) at 25V for 1 hr in transfer buffer. Membranes were blocked for 1 h at RT in 10% skim milk powder (SMP) in PBS, washed once in 0.05% Tween20/PBS and twice in PBS. Washed membranes were incubated for 1 hour at RT with either culture supernatant containing the Hev b 6-specific mAb 1A5.4, diluted 1 in 100 in 1% SMP/PBS or human serum, diluted 1 in 5 in 1% SMP/PBS. For mAb detection membranes were washed as above and incubated for 1 h at RT with goat HRP-conjugated anti-mouse Ig (Silenus), diluted 1 in 2000 in 1% SMP/PBS. For IgE detection, membranes were incubated for 1 h at RT with rabbit anti-human IgE (Dako, Denmark) at 1 in 1000 dilution, followed by swine anti-rabbit IgG-HRP conjugate (Promega) at 1 in 1000 dilution. After washing, the binding of 1A5.4 mAb and patient serum IgE to rHev b 6 was detected using hydrogen peroxide/diaminobenzidine solution.

[4] = non-reducing SDS-PAGE, sera of latex allergic subjects
[5] = reducing SDS-PAGE (data not shown)

Molecule	maximum inhibition of IgE binding to rHev b5 (non-specific) (IgE binding to rHev b 5)	serum IgE reactivity by Western blotting [1]	solubility [2]	IgE reactivity in Western blotting [3, 4]	IgE reactivity in Western blotting [3, 5]
B1	20%	all showed reactivity	insoluble	reactive	reactive
B2	20%	–	–	–	–
B3	–	–	increased markedly	failed to react	reactive
